This test deals with T1, Ssa1 (UniProt P10591 1-642).
T1 construct: also called a member of the Hsp70 family (Ssa1); Saa1
Briefly: ThT aggregation kinetics, global. To be noted: both partners purified.

The results in this text go back to article PMC4820785 (Nature Communications, 2016).

T1 sequence (P10591 whole entry): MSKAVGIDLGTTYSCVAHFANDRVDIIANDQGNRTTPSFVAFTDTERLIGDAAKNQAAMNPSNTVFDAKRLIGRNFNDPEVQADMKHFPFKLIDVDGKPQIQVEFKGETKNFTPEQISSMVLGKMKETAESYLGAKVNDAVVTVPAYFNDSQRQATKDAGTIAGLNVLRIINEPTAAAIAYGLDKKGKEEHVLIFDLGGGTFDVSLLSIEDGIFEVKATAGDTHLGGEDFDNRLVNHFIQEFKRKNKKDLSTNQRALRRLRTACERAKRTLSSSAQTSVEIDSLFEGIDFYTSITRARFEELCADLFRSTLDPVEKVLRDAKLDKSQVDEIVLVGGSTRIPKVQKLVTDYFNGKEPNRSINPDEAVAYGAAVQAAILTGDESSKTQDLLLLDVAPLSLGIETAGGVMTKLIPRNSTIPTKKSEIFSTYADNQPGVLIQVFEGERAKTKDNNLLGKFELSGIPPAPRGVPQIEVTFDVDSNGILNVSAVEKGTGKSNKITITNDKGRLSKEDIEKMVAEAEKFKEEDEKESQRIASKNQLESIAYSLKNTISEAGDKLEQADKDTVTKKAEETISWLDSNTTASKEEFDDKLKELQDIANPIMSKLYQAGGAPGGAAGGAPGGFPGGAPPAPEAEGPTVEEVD

B1: yeast prion protein Ure2p (natural protein, UniProt P23202 1-354, looked up)
chain: MMNNNGNQVSNLSNALRQVNIGNRNSNTTTDQSNINFEFSTGVNNNNNNNSSSNNNNVQNNNSGRNGSQNNDNENNIKNTLEQHRQQQQAFSDMSHVEYSRITKFFQEQPLEGYTLFSHRSAPNGFKVAIVLSELGFHYNTIFLDFNLGEHRAPEFVSVNPNARVPALIDHGMDNLSIWESGAILLHLVNKYYKETGNPLLWSDDLADQSQINAWLFFQTSGHAPMIGQALHFRYFHSQKIASAVERYTDEVRRVYGVVEMALAERREALVMELDTENAAAYSAGTTPMSQSRFFDYPVWLVGDKLTIADLAFVPWNNVVDRIGINIKIEFPEVYKWTKHMMRRPAVIKALRGE
notes: also called prion Ure2p
Turning to B1, the Ka stood at 300000 M⁻¹.
